Experimental data taken from publication doi:10.1101/2021.06.22.449413, “A Thioredoxin reductive mechanism balances the oxidative protein import pathway in the intermembrane space of mitochondria” (bioRxiv, 2021).
Changes are numbered by the printed parent chain.

B1: Trx1 C30/33S double mutant, His-tagged (natural protein, S. cerevisiae, UniProt P22217 1-103, looked up)
chain: MVTQFKTASEFDSAIAQDKLVVVDFYATWSGPSKMIAPMIEKFSEQYPQADFYKLDVDELGDVAQKNEVSAMPTLLLFKNGKEVAKVVGANPAAIKQAIAANA
notes: Thioredoxin 1 (Trx1), S. cerevisiae, both active-site cysteines changed to serine; also called Trx1His C30/33S; TrxC30/33SHis; source: purified as 6His-tagged protein
B2: Thioredoxin 1 (Trx1), His-tagged, wild type (natural protein, S. cerevisiae, UniProt P22217 1-103, looked up)
chain: B1 chain with S30C, S33C
notes: Thioredoxin 1 (Trx1), S. cerevisiae, cytosolic isoform; cloned in PET24 vector; also called Trx1His wt; TrxHis; source: E. coli, purified (Ni-NTA); for the pull-down imported into isolated wt yeast mitochondria
B3: Thioredoxin 2 (Trx2), His-tagged (natural protein, S. cerevisiae, UniProt P22803 1-104, looked up)
chain: MVTQLKSASEYDSALASGDKLVVVDFFATWCGPCKMIAPMIEKFAEQYSDAAFYKLDVDEVSDVAQKAEVSSMPTLIFYKGGKEVTRVVGANPAAIKQAIASNV
notes: Thioredoxin 2 (Trx2), S. cerevisiae, cytosolic isoform; source: purified as 6His-tagged protein
B4: Mia40Δ290 His (S. cerevisiae Mia40 devoid of the N-terminal 290 residues) (domain or fragment, UniProt P36046 291-403, looked up)
chain: EINWDCPCLGGMAHGPCGEEFKSAFSCFVYSEAEPKGIDCVEKFQHMQDCFRKYPEHYAEQLKETSDDEEPQDKVKVNTIESAPNVSSAKENAAKKAEQSDVKKEPLNEESKP
notes: Mia40, S. cerevisiae, lacking the first 290 amino acids; core domain of about 15 kDa; also called core domain of Mia40; soluble functional domain of Mia40; source: purified as 6His-tagged protein

What was measured:
[1] = biological target: B4; assay: ITC; 1 mM Mia40Δ290 His in the syringe, 0.1 mM TrxC30/33SHis in the cell; Kd calculated with the Origin software; details: both partners purified
[2] = biological target: the molecule itself; assay: cross-linking; glutaraldehyde 0.1 % final, equimolar purified proteins alone or together, 50 mM Hepes-KOH pH 7.4, on ice, 20 seconds to 10 minutes; SDS-PAGE and anti-His immunoblot
[3] = biological target: B4; assay: as above; details: both partners purified

Row | Kd [1] [µM] | binding result [3] | Binder | binding result [2]
1 | 30 | – | B1 | binds
2 | – | binds | B2 | binds
3 | – | binds | B3 | binds
4 | – | – | B4 | binds
